We go through one protein from paper PMC8608799, “The main oxidative inactivation pathway of the plant hormone auxin” (Nature Communications, 2021).

Substrate in data set [1]: O=C(O)C[C@H](NC(=O)Cc1c[nH]c2ccccc12)C(=O)O
Kind of data set: HPLC of oxidised product, Michaelis-Menten. In kind it is biochemical, Arabidopsis thaliana. Conditions: 0.5 mM 2-oxoglutarate, 2 μM Fe(II), 5 mM ascorbate, 50 mM potassium phosphate pH 7.2, 30 °C.

Substrate in data set [2]: O=C(O)CC[C@H](NC(=O)Cc1c[nH]c2ccccc12)C(=O)O
Kind of data set: HPLC of oxidised product, Michaelis-Menten. It is filed as biochemical, Arabidopsis thaliana. Particulars: 0.5 mM 2-oxoglutarate, 2 μM Fe(II), 5 mM ascorbate, 50 mM potassium phosphate pH 7.2, 30 °C.

B1: AtDAO1 (Arabidopsis thaliana) (protein)
chain: MGELNGVIIPTIDLEEVSDKILNQKIREASERWGCFRVINHGVSLSLMAEMKKTVIDLFQRPYEVKVRNTDVLLGSGYRAPNEINPYYEALGLYDMASPHAVNTFCDQLEASADQREIMVKYAKAINGLATDLARKLAESYGLVETDFFKEWPSQFRINKYHFKPETVGKLGVQLHTDSGFLTILQDDENVGGLEAMDNSSGTFFPIDPLPNTLAINLGDMATIWSNGRLCNVKHRVQCKEATMRYSIASFLLGPMDTDLEPPSEFVDAEHPRLYKPISHEGVRNIRMTKKLHDGEALKLITHAGLDK
notes: full-length ORF in pCold I, N-terminal His tag kept, E. coli BL21, TALON purified
With B1, the Michaelis-Menten constant (Km) in data set [1] came out at 13.5 µM; in data set [2], 9.4 µM.

The term Km denotes the substrate concentration at which the rate is half of its maximum.
